Data on one protein can be found in article PMC10240212 (EMBO Reports, 2023).

Data set [1] deals with the molecule itself. The experiment in a line: mass photometry.
Data set [2] concerns the molecule itself. The experiment in a line: SEC.

B1: Teneurin‐m superfold (Ten‐m^SF), residues 779–2731 (domain or fragment)
chain: LNCGDSKDNDKDGLVDCEDPECCASHVCKTSQLCVSAPKPIDVLLRKQPPAITASFFERMKFLIDESSLQNYAKLETFNESRSAVIRGRVVTSLGMGLVGVRVSTTTLLEGFTLTRDDGWFDLMVNGGGAVTLQFGRAPFRPQSRIVQVPWNEVVIIDLVVMSMSEEKGLAVTTTHTCFAHDYDLMKPVVLASWKHGFQGACPDRSAILAESQVIQESLQIPGTGLNLVYHSSRAAGYLSTIKLQLTPDVIPTSLHLIHLRITIEGILFERIFEADPGIKFTYAWNRLNIYRQRVYGVTTAVVKVGYQYTDCTDIVWDIQTTKLSGHDMSISEVGGWNLDIHHRYNFHEGILQKGDGSNIYLRNKPRIILTTMGDGHQRPLECPDCDGQATKQRLLAPVALAAAPDGSLFVGDFNYIRRIMTDGSIRTVVKLNATRVSYRYHMALSPLDGTLYVSDPESHQIIRVRDTNDYSQPELNWEAVVGSGERCLPGDEAHCGDGALAKDAKLAYPKGIAISSDNILYFADGTNIRMVDRDGIVSTLIGNHMHKSHWKPIPCEGTLKLEEMHLRWPTELAVSPMDNTLHIIDDHMILRMTPDGRVRVISGRPLHCATASTAYDTDLATHATLVMPQSIAFGPLGELYVAESDSQRINRVRVIGTDGRIAPFAGAESKCNCLERGCDCFEAEHYLATSAKFNTIAALAVTPDSHVHIADQANYRIRSVMSSIPEASPSREYEIYAPDMQEIYIFNRFGQHVSTRNILTGETTYVFTYNVNTSNGKLSTVTDAAGNKVFLLRDYTSQVNSIENTKGQKCRLRMTRMKMLHELSTPDNYNVTYEYHGPTGLLRTKLDSTGRSYVYNYDEFGRLTSAVTPTGRVIELSFDLSVKGAQVKVSENAQKEMSLLIQGATVIVRNGAAESRTTVDMDGSTTSITPWGHNLQMEVAPYTILAEQSPLLGESYPVPAKQRTEIAGDLANRFEWRYFVRRQQPLQAGKQSKGPPRPVTEVGRKLRVNGDNVLTLEYDRETQSVVVMVDDKQELLNVTYDRTSRPISFRPQSGDYADVDLEYDRFGRLVSWKWGVLQEAYSFDRNGRLNEIKYGDGSTMVYAFKDMFGSLPLKVTTPRRSDYLLQYDDAGALQSLTTPRGHIHAFSLQTSLGFFKYQYYSPINRHPFEILYNDEGQILAKIHPHQSGKVAFVHDTAGRLETILAGLSSTHYTYQDTTSLVKSVEVQEPGFELRREFKYHAGILKDEKLRFGSKNSLASARYKYAYDGNARLSGIEMAIDDKELPTTRYKYSQNLGQLEVVQDLKITRNAFNRTVIQDSAKQFFAIVDYDQHGRVKSVLMNVKNIDVFRLELDYDLRNRIKSQKTTFGRSTAFDKINYNADGHVVEVLGTNNWKYLFDENGNTVGVVDQGEKFNLGYDIGDRVIKVGDVEFNNYDARGFVVKRGEQKYRYNNRGQLIHSFERERFQSWYYYDDRSRLVAWHDNKGNTTQYYYANPRTPHLVTHVHFPKISRTMKLFYDDRDMLIALEHEDQRYYVATDQNGSPLAFFDQNGSIVKEMKRTPFGRIIKDTKPEFFVPIDFHGGLIDPHTKLVYTEQRQYDPHVGQWMTPLWETLATEMSHPTDVFIYRYHNNDPINPNKPQNYMIDLDSWLQLFGYDLNNMQSSRYTKLAQYTPQASIKSNTLAPDFGVISGLECIVEKTSEKFSDFDFVPKPLLKMEPKMRNLLPRVSYRRGVFGEGVLLSRIGGRALVSVVDGSNSVVQDVVSSVFNNSYFLDLHFSIHDQDVFYFVKDNVLKLRDDNEELRRLGGMFNISTHEISDHGGSAAKELRLHGPDAVVIIKYGVDPEQERHRILKHAHKRAVERAWELEKQLVAAGFQGRGDWTEEEKEELVQHGDVDGWNGIDIHSIHKYPQLADDPGNVAFQRDAKRKRRKTGSSHRSASNRRQLKFGELSA
In general, stoichiometry N refers to a count of units in the complex or per binding partner. As for B1, the “stoichiometry N” value in data set [1] is about 4; in data set [2], 2.
